Source: the supplement of paper PMC10567573

B1: TFE3 (parent)
chain: ELPNIKREISETEAKALLKERQKK

Variants of: B1
Assay: protein stability index of a GFP-peptide fusion (GPS, HEK-293T) (PSI 1-6); higher = more stable
Settings: c terminus: a fixed tail appended
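Note: lentivirally expressed fusions sorted by FACS into six bins by GFP to DsRed ratio, PSI derived from sequencing read proportions per bin multiplied by bin number.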

Protein stability index, by site and new letter:
P3: K 3.82 | N 4.13 | I 1.34 | D 2.89 | H 2.57 | F 2.84 | C 2.43 | W 2.43 | R 3.75 | E 3.17 | M 1.93
L18: N 2.4 | T 2.65 | A 2.67 | S 2.77 | Y 2.92 | R 2.32 | I 3.06 | D 2.07 | P 2.77 | G 1.87
A16: R 3.68 | H 4.11 | P 4.2 | K 3.91 | I 3.16 | G 3.47 | N 4.09 | S 2.87 | W 2.57
E13: C 2.74 | V 3.45 | T 4.34 | Q 4.34 | M 3.71 | Y 3.32 | H 4.65 | I 3.33 | A 4.83 | P 3.92 | R 3.43
S10: I 3.13 | E 2.15 | D 2.53 | T 2.59 | F 2.65 | P 4.98 | Q 2.68 | Y 2.35 | M 2.12 | R 2.91 | H 2.82 | V 3.62 | W 2.9
I9: E 5.1 | F 4.51 | V 3.64 | G 4.67 | D 5.15 | R 3.88 | C 3.74 | L 2.66 | S 4.68 | H 5.21
L2: V 1.95 | W 3.96 | P 5.74 | N 5.12 | Y 4.18 | D 5.49 | M 2.84 | H 4.51 | E 5.33 | C 3.5 | Q 3.88
E8: K 4.06 | S 3.69 | Q 3.34 | F 3.52 | P 4.31 | D 2.69 | A 2.49 | Y 3.68 | N 3.46
E11: F 3.43 | C 2.87 | K 3.48 | I 3.05 | R 2.5
K24: S 2.28 | H 2.2 | A 2.46 | V 2.96 | Y 2.69 | G 2.76 | W 2.44 | D 2.91 | F 2.03 | T 2.79 | M 2.19 | R 2.15 | P 2.17
K23: H 2.44 | E 2.64 | G 2.42 | P 2.35 | Y 2.1 | V 2.61 | A 2.19 | L 2.91 | S 2.8
R21: K 2.5 | T 2.82 | W 2.15 | V 2.53 | H 2.63 | A 3.07
E20: T 3.07 | N 2.9 | P 2.52 | H 2.9 | G 2.78 | K 2.83 | R 3.29 | C 2.07 | Q 2.77
K15: F 2.54 | D 1.98 | G 2.34 | W 2.42 | S 2.75 | Q 2.46 | R 3.15 | P 4.59
N4: S 3.23 | A 2.88 | K 2.78 | W 3.35 | P 3.76 | L 3.34 | C 2.32 | F 3.14 | G 3.62 | R 2.34 | V 3.86 | Q 2.02 | M 2.83 | T 3.33 | Y 3.29
I5: G 3.46 | T 4.7 | V 3.94 | A 4.81 | H 4.61 | D 5.33 | N 4.22 | W 3.93 | E 5.37 | M 2.23 | L 3.34 | C 3.53 | K 4.58
T12: E 5.55 | F 3.78 | N 4.46 | Q 4.67 | C 2.51
